Reference: the DeepSol protein solubility set

test: soluble on expression in E. coli; label from the status in PepcDB or PDB records

Sequence	soluble on expression in E. coli
MRIWSSEHIFDHEWETVAQAAFRKYPNPLNRSITGIDVVKQTLEAGKILTERIIQSHFSIPSWATKLTGFSGTQYSHEYTVIDPTRKEFSLTTRNLNGSSFLRVDEKLTYTPAHEDPNKTILKQDVIVTITLPAFADYCEKTFLSIYSQNANKGRQGVEWVIDHLKKEYEAISTKVSSEVHEMSEKVLRSFGTTSSSSPKPSTPPPPST	not soluble
MRKEVEQLALMGAMPDEADERITAALVDEYADLLGKIVKPVTLDEAHILIKLFPPTALYGIEWTLLHLIESVYSEIKSLEYRELINECNSTEFKKMLVQRLNNSQQKKITNEAG	not soluble
MRKGGKGYFLTIRRDYVTVSYYLKYVKDIPLEFREIIDIFNNHKFEQYTQEQINKYTYTCNVRKIEDIDKYDEKNPTKFHEYTRGEACRCQTYNYFKDDEFIKRAKLKCIYYNMLFTESATVYSRHCPIIDLMHFAVYDIEYPPIFNTIVNITIEEYYYNDVSSVLNNKSDLVTKEKKYQLNDTITEIRDDYFDLWLFLKGETHGKRTLVNLSNDYIVIPSSPINNRDVIASDITRNCGLSQNSPLLKGCNYSSICNIMHPCLRKAMMLPKYMFDLSGKTCGKLGVSLNT	not soluble
MRKIKIGLALGSGAARGWSHIGVINALKKVGIEIDIVAGCSIGSLVGAAYACDRLSALEDWVTSFSYWDVLRLMDLSWQRGGLLRGERVFNQYREIMPETEIENCSRRFAAVATNLSTGRELWFTEGDLHLAIRASCSIPGLMAPVAHNGYWLVDGAVVNPIPISLTRALGADIVIAVDLQHDAHLMQQDLLSFNVSEENSENGDSLPWHARLKERLGSITTRRAVTAPTATEIMTTSIQVLENRLKRNRMAGDPPDILIQPVCPQISTLDFHRAHAAIAAGQLAVERKMDELLPLVRTNI	not soluble
MRKILVVGAGQSGLQLALGLQSHGYEVTLMSNRTADEIRTGRVMSTQCMFHTALQHERDLQLNFWESQAPKIEGLGVSVAAPGSFDPGPSQRAIDWLGHLDGFAQSVDQRVKMAGWMETFAQRGGQLVIHGAAVGDLDYFSRAYDLVLVSAGKGELVQMFGRDAERSPYSEPQRALAVAYVHGMGPRPEHPETEAVRCNLVPGVGEMFIMPTFTTSGRADILFWEGIPGGPLDAFKDVKDPAEHLSLTLELMEKFLPWEYARATKVELTDAGGTLAGRYAPTVRNPVGRLPGGGAVLGVADVVVANDPITGQGSNSASKCAASYLASIIEHGDQEFDETWMRQTFDRYWETAQHVTKWTNTMLAPPPEHILNLFGAATQLQPIADRFANGFNDPSDFENFFYDPAKTEGYLAEVSGAAGALEHHHHHH	not soluble
MRKKEDKYDFRALGLAIKEARKKQGLTREQVGAMIEIDPRYLTNIENKGQHPSLQVLYDLVSLLNVSVDEFFLPASSQVKSTKRRQLENKIDNFTDADLVIMESVADGIVKSKEVGEMAGENLYFQ	soluble
MRKKPLTIFSDGTLTRRENTLYFESAKGRKPLAIEGIYDIYIYGHVNITSQALHYIAQKGILIHFFNHYGYYDGTFYPRETLLSGDLIIRQAEHYLNKEKRLFLAKSFVTGGTKNMERNLKNWGIKAKLSDYLDELNDARKITEIMNVEARIRQEYYAKWDENLPEEFKIVKRTRRPPKNEMNALISFLNSRLYATIITEIYNTQLAPTISYLHEPSERRFSLSLDLSEIFKPIIADRVANRLVKKGSLKKEHFREDLNGVLLTEEGMKIVTKAYNEELQKSVKHPKIGSNVTRQRLIRLEAYKLIKHLVGVEEYKPLVAWF	soluble
MRKPKITVIGGGTGIPVILNSLRHEEVDITAIVTVADDGGSSGAIRHVMQLTPPGDLRNVLVAMSDMPKFYERIFQYRFNAEDGALAGHPLGNLIIAGISEMQGSTYNAMQILSKFFHTTGKIYPSSEKALTLHAVFQDGQEVVGESQIAKHKGMIDHVYVANSYDDAKPTASRKVVDAIMESDMIVLGPGSLFTSILPNLVIDEIGKALCETEAEVAYVCNIMTQYGETEHFTDADHVRVLNRHLGQNFIDTVLVNVEKVPQDYMNSNQFDEYLIQVEHDFAGLQEQVPRVVSSNFLCLENGGAFHNGKSVVDELMNLIKVKELLEHHHHHH	not soluble
MRLATKDLAEAIRKGQVRKSSFNTEQLRAIEKGESKIPDYTWHHHQDTGRMQLIREGLHHDTGHIGWEAMNKGR	not soluble
MRLNHNSYEIFDFMRSRSAIGVLSKIIITIPPINLRMIIGVMGPEGSYSERAAKLWARKNGLRGAEFHYFADIEDAFLAAVGGKTDISVVPVENSIEGSVGVTLDLLLENEAVIIGEIVVKIEHCLLSKGEPEKIRVILSHPQGLAQCRHFLKTHFPEAELRSTGSTSHAARLAGEFEEMAAIASPEAAERYGLKILLSNVQDRKENHTRFIVVRGGEKVLSGKIKGKADSGEKLNTVFGRNAEHKLCSETETGTENSSSYAFKTSLIVYLEKDRPGALYEPLGFFAKRGINLTKIESRPSKKELGDYYFYIDLEGNISDVLIKDALEDIKSKASKKSRSSTLKVLGSYPAFKK	not soluble
MRLVDLRSDTLTRPTPAMRKAMAEAEVGDDAYGEDPTVNRLEALAAERLGFERALFLPSGTMANQVALLLHLPKELEAEARRYRKLLGGGWRQAGVLAAAGILALEEGPKHLRRDHEMARALAEGLFRLGLAVDLGAVETNMVYLEVEDPEGFLQGLRARGVLAGRVGGRVRFVTHRDLMDEDIPLALERVQDLLHSRPR	soluble
MRMLRRLRRATVAAAVWLATVCLVASCANADPLGSATGSVKSIVVGSGDFPESQVIAEIYAQVLQANGFDVGRRLGIGSRETYILALKDHSIDLVPEYIGNLLLYFQPDATVTMLDAVELELYKRLPGDLSILTPSPASDTDTVTVTAATAARWNLKTIADLAPHSADVKFAAPSAFQTRPSGLPGLRHKYSLDIAPGNFVTINDGGGAVTVRALVEGTATAANLFSTSAAIPQNHLVVLEDPEHNFLAGNIVPLVNSRKKSDHLKDVLDAVSAKLTTAGLAELNAAVSGNSGVDPDQAARKWVRDNGFDHPVRQ	soluble
MRNKNMSTIYQTSATASAGRNGVVSTEDKLLELNLSYPKEMGGSGTATNPEQLFAVGYAACFSNAILHVAREAKVALKEAPVTATVGIGPNGQGGFALSVALAAHIALEDEQARQLVTVAHQVCPYSNAVRGNIDVQVSVNGLAL	not soluble
MRNVLKAETLERKFPLLSVENGCIVSKDADLTVAFEVELPELFTMTAAEYEAVHSSWVKAVKVLPDFSVVCKQDWFTKETYRPDFRDGEQSFLSKSYERHFNERPYLNHKCYLYLTKTTRERSRQRSDFNSLCCGSLLPKEMVDKDTAVRFLEAVEQFERIMNDSGHVSLRRLEADEITGTEGRPGLVEKYFSLSLEDETAVLQDICLNPGGMRVGDKRLCVHTLSDTEDLPVRVSTDMRYGRMSTDRSDCRLSFAAPVGLLLPCNHIYSQYVFIDDAQEILRTMEKTSRNMLSLSKYSRSNAVNREWTEMYLDEAHTKGVLPVRCHCNVMAWAEDREELRRVKNDTGSQLAMMECTPRHNTVDAPVLYWAGIPGNAGDFPAEESFYTFLEQAVCLFTAETNYRSSSSPFGIRMADRRNGIPLHVDISDLPMKRGIITNRNKFVLGPSGSGKSFFTNHLVRQYYEQGTHILLVDTGNSYQGLCRMIHDRTHGEDGIYITYEEDNPIAFNPFYTDSGQFDVEKRESIKTLILTLWKREDEAPKRSEEVALSGAVNAYIRRITDDRASRPDFNGFYEFVRDDYRRMIEQKKVREKDFDIDGFLNVLEPFYRGGDYDFLLNSDKELDLTNKRFIVFELDNISSNKVLLPVVTLIIMETFISKMRKLRGIRKMILIEECWKALMSANMSEYIKYLFKTVRKYFGEAVVVTQEVDDIISSDIVKEAIINNSDCKILLDQRKYMNKFEHIQKLLGLTEKERGQILSINRANRPGPFYREVWIGLGGTHSAVYATEVSAEEYAVRP	not soluble
MRPARALIDLQALRHNYQLAREVTGAKALAVIKADAYGHGAVRCAQALEAEADGFAVACIEEALELRAAGIRAPILLLEGFFEADELPLIVEHDFWCVVHSLWQLDAIEQARLAKPIHVWLKLDSGMHRVGLHPNDYKAAYQRLQASANVAKIVLMSHFARADELDCTRSVEQVAVFLGARADLTAEISLRNSPAVLGWPRVPSDWVRPGLMLYGSSPFDEPQATASRLQPVMTLESKVICVRELPAGEPVGYGARFITPKPMRIGVVAMGYADGYPRQAPTGTPVFVDGVRSQLLGRVSMDMLCIDLTDVPQAGLGSTVELWGKNILASEVATAADTIPYQIFCNLKRVPRLYSGN	soluble
MRPDFGTDGRLPSALSMGTADVAFHLATGGNPVPLAFTFGFEGRAPTLDSVRARVAERVHHVPALRYRIARDRRKFRRVDRIAVDRHVHEAWLPEDTDGSATSRLMLSRPMSTDDRPPWDVWLVHGPAERHTLVYRTDHTFQDGMGAAYTARALLGDHPEGGPAPQRPARPTAHGLADALGEVVAAFRAPTPKPAFDGDFTGRVDVCHADTPLARLRAIARAHGGTVTDVYLAALSHAVRTWYLKDTGSAHPPLPVSIPMSVRAPGEEYAPGNRMVTARLLLPCDEESPQRALARVVAGTGRLRESRRRDAMRLLLSASPRALGATVGTRLVRGAFVAGPVSSVNFGTALVHQGVAARRSAVFAGVASGIRCVTTLTSQHDTACLTVVHDEALATADELPDLWLAALLELERPLEHHHHHH	not soluble
MRPEHLSLQLLAWIYLINGNPIVQKGGLEVLDITDSNDLSVRQRFEEVIRLDCASQRRKALKRKTDGDARIYIPTCSPKNSLLYDKVQCYDVSIYCWCVDELSGEPKLGSSTTRGKPKCEETPTTTVAPKRVRRNNRCKEKKRTRFLRRLVSTLKSEMIMSGINATKVSRDSAIRWKFNQLNINHNNVLERSEWKPFKSVLLEWKNVRQCSRNLFKTCDLNKDRKLTFDEWRKCIVQEINRVPAKRPDQLNPFLYILRSE	soluble
MRPIEEFVYVGNQVIVPDQASLMRCYYPIIGGEGYALYQYFVAFYDNGNHRHKFATILNHLNFGMQPLQESLAVLTAVDLLAFYHSPQGIYVVELKSPLSIEQFLKHAVYSSLLEQKIGEPAVDALKPTSLHGLQDLSKRFSDVFTDERLAQKSVSEIKPKNSFDLISFRNRMQADGLVFTDEKTDVPEIYKLSETYDMNWYDTYLLSKKTAVNHRIIVKRMQVQLEQAQAQKLGGDSALTETEKKILKAVKSGKPVDYLQSAKGPGGTVTNSEKKILTDLAQRGFMDEVINLMVAYSLGRTRSTNVNREYISKVANDFDFKKIVTAEQGLLALRSGYDKKSQRAKDDSKKKTNVPSWSDPDYDNQTNQADQAKLDEIRRRALAKLEKG	not soluble
MRQHRPALELSRLPELLSRIDGYKGQPVTRLAVMLNLLVFIRSSELRYARWSEIDIDNSMWTIPAEREPLPGVKFSHRGSKMRTPHLVPLSKQVVAILAELQTWAGENGLIFTGAHDPRKPISENTVNKALRVMGYDTTQEVCGHGFRAMACSALIESGLWSRDAVERQMSHQELEHHHHHH	not soluble
MRQIETQQLEAETSFTERIAEDRVKCAAQRESLERQLQDLTATDNKLSEQKRDWEERQEKAYDELMSYLENEDVDSAGTQFGDHFNSLIKSMNNLSHDSMNGQFNSLKNNLDELNIEKKQLEVAIADQSSTISEMIPSLRPTCGATYKERNTLRIIFHYQVAKLRSEYQKCRLQEEALKARLST	not soluble
MRQQNGWVLKGGTNIYCRIPGARQTKDLDLYRRDDPTSSTGAAESLVSAMNGYKIGPYIFHVIHPRQSGGVGTVDSERIDVTVIHGINNRLVSFGVDVSGDLEVTGTVEPVTVATSYKVHTEFLPQRFKVYSYPVASQIADKICAMYERHGNTPPGRASTRYHDLYDVALMARELTVSAFDLRSALDTQCRVRNMSLPNHLTIPDESWKDQYPIKARNFGDEQWGLTELDEALRVAGLLINPILNREFKESDRAWNCTALLWE	not soluble
